What was measured:
Settings in all cases: both partners purified
[1] = molecular target: T1, Full-length human AURKA^T288V (human, UniProt O14965 1-403, T288V, not phosphorylated: 0P by intact mass (Supplementary Fig. S3a)); assay: fluorescence polarisation; competitive displacement: FITC-Tpx2^1–43 (5 nM) and AURKA (35 nM) kept constant, unlabeled competitor varied; 25 mM HEPES pH 7.5, 50 mM NaCl, 10 mM MgCl2, 0.1 mg/mL BSA, 0.01% Brij, 3 mM ADP, 2 mM DTT
T1 construct: non-native residues left at the N-terminus after TEV digestion; Aurora A kinase (AURKA), human, full length, T-loop mutant T288V; source: E. coli BL21 DE3 pLysS RIL, purified (glutathione sepharose, TEV cleavage, HiTrap SP, Superdex 200); not shown: 6xHis, N-terminal, cleaved; GST, N-terminal, cleaved
T1 sequence: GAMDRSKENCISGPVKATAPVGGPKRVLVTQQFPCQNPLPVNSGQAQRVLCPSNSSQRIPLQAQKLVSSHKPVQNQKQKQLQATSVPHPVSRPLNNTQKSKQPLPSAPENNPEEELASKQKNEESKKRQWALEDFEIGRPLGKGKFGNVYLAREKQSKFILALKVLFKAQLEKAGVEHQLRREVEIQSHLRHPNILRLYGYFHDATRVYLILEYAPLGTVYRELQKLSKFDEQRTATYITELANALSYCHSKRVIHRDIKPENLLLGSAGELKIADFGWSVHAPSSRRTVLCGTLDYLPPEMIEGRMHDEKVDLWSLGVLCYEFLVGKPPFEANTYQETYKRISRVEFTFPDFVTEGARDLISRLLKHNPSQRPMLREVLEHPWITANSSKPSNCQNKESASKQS

[2] = molecular target: T2, fluorescein-labeled Tpx2^1–43 polypeptide (UniProt Q9ULW0 1-43, fluorescein (FITC) label, position not stated); assay: fluorescence polarisation; direct binding: 5 nM FITC-Tpx2^1–43 with increasing AURKA; 25 mM HEPES pH 7.5, 50 mM NaCl, 10 mM MgCl2, 0.1 mg/mL BSA, 0.01% Brij, 3 mM ADP, 2 mM DTT
T2 construct: Tpx2 (Targeting Protein for Xenopus kinesin-like protein 2), first 43 residues; also called FITC-Tpx2^1–43; source: synthetic peptide (Proteogenix)
T2 peptide (looked up): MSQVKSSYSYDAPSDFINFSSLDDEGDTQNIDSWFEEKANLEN

[3] = molecular target: T3, Full-length human AURKA^T288V (human, UniProt O14965 1-403, T288V); assay: SPR; biotinylated AVI-Bora^1–224 or AVI-pBora^1–224 immobilised on a streptavidin chip (Biacore S200), AURKA flowed over; 25 °C; 25 mM HEPES pH 7.5, 150 mM NaCl, 20 mM MgCl2, 1 mM TCEP, 0.01% Brij 35; flow 10 µL/min; mean of n = 2; the paper says the affinities appear under-estimated
T3 construct: non-native residues left at the N-terminus after TEV digestion of the 6xHis-GST fusion; Aurora A kinase (AURKA), human, full length, T288V; Lacks T-loop phosphorylation; MW 45935.52 in the SPR methods; also called AURKA T-loop mutant (T288V); source: E. coli BL21 DE3 pLyS RIL, purified (glutathione sepharose, TEV cleavage, HiTrap SP, Superdex 200); not shown: 6xHis, N-terminal, cleaved; GST, …
T3 sequence: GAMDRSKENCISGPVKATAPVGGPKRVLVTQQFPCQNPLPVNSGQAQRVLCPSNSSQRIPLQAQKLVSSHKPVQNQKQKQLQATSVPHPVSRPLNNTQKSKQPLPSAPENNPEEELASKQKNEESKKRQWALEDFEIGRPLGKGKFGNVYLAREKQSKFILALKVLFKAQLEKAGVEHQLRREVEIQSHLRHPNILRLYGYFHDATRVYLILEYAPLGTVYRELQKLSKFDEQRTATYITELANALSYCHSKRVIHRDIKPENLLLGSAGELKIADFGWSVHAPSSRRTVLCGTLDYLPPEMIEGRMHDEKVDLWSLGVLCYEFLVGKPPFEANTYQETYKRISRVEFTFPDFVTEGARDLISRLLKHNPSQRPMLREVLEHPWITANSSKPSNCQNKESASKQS

[4] = molecular target: T4, Full-length human AURKA^WT (Aurora A kinase) (human, UniProt O14965 1-403, phosphothreonine at T288 (T-loop; 'WT phosphorylated')); assay: as above
T4 construct: non-native residues left at the N-terminus after TEV digestion of the 6xHis-GST fusion; Aurora A kinase (AURKA), human, full length; also called AURA^WT; WT phosphorylated; source: E. coli BL21 DE3 pLyS RIL, purified (glutathione sepharose, TEV cleavage, HiTrap SP, Superdex 200); not shown: 6xHis, N-terminal, cleaved; GST, N-terminal, cleaved
T4 sequence: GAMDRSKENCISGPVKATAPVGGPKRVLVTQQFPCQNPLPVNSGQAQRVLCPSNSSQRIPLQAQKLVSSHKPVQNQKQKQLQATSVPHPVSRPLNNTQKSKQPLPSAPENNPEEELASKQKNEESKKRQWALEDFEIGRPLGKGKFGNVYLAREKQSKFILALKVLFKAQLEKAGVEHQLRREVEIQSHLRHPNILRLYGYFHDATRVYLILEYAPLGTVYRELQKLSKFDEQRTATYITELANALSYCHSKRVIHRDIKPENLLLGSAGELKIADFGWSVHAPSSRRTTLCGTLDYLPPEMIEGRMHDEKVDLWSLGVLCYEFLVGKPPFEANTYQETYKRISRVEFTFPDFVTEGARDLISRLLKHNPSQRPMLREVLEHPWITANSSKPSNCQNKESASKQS

B1: pBora^(18–120 [S27A T52A]) (domain or fragment)
chain: not shown
modifications: phosphorylated; with ERK 2P and 3P by intact mass, 2 phosphorylations expected (S41, S112) (Supplementary Fig. S6e)
notes: non-native residues left at the N-terminus after TEV digestion; Bora, human, residues 18-120 with S27A and T52A; source: E. coli BL21 DE3 pLysS RIL, purified, then phosphorylated in vitro; not shown: 6xHis, N-terminal, cleaved
- IC50 [1]: 0.68 µM

B2: AURKA^([T288V R255A]) (enzyme, human)
chain: GAMDRSKENCISGPVKATAPVGGPKRVLVTQQFPCQNPLPVNSGQAQRVLCPSNSSQRIPLQAQKLVSSHKPVQNQKQKQLQATSVPHPVSRPLNNTQKSKQPLPSAPENNPEEELASKQKNEESKKRQWALEDFEIGRPLGKGKFGNVYLAREKQSKFILALKVLFKAQLEKAGVEHQLRREVEIQSHLRHPNILRLYGYFHDATRVYLILEYAPLGTVYRELQKLSKFDEQRTATYITELANALSYCHSKRVIHADIKPENLLLGSAGELKIADFGWSVHAPSSRRTVLCGTLDYLPPEMIEGRMHDEKVDLWSLGVLCYEFLVGKPPFEANTYQETYKRISRVEFTFPDFVTEGARDLISRLLKHNPSQRPMLREVLEHPWITANSSKPSNCQNKESASKQS
notes: non-native residues left at the N-terminus after TEV digestion of the 6xHis-GST fusion; Aurora A kinase (AURKA), human, full length, T288V R255A; source: E. coli BL21 DE3 pLyS RIL, purified (glutathione sepharose, TEV cleavage, HiTrap SP, Superdex 200); not shown: 6xHis, N-terminal, cleaved; GST, N-terminal, cleaved
- fold reduced binding against the other AURKA^T288V mutants [2]: 3 fold

B3: biotinylated AVI-tagged Bora^1–224 (domain or fragment)
chain: not shown
modifications: biotin (on the AVI tag, by BirA)
notes: source: E. coli BL21 DE3 pLyS RIL, purified, biotinylated in vitro with 6xHis-BirA and re-purified (Superdex 200); not shown: AVI, N-terminal, kept; 6xHis, N-terminal, cleaved
- Kd [3]: 11 µM
- Kd [4]: ~52 µM

B4: biotinylated AVI-tagged pBora^1–224 (phosphorylated by CyclinA2-Cdk2) (domain or fragment)
chain: not shown
modifications: biotin (on the AVI tag, by BirA); phosphorylated by CyclinA2-Cdk2 (average of eight phosphorylations)
notes: As m9, phosphorylated; MW 27440 calculated from an average of eight phosphorylations; not shown: AVI, N-terminal, kept; 6xHis, N-terminal, cleaved
- Kd [3]: 6 µM
- Kd [4]: ~18 µM

Reference: article PMC7997955, “Bora phosphorylation substitutes in trans for T-loop phosphorylation in Aurora A to promote mitotic entry” (Nature Communications, 2021)
